For assay [1], the target named is T1, recombinant human tumor necrosis factor alpha (human, UniProt P01375 77-233). In words: BLI. In general terms: In BLI a coated tip is dipped into the sample, and binding shifts an interference pattern.
Assay [2] has as its target T1, recombinant human tumor necrosis factor …. As to the kind of experiment: BLI. This is another data set of the same source.

This note sets out measurements from paper PMC8809985 (2021).

T1 sequence (P01375 77-233): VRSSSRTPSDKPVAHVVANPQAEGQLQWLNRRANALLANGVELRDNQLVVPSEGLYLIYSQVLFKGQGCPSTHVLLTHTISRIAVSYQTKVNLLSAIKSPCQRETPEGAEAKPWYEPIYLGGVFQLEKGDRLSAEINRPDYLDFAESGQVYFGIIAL

B1: Haidalimumab (antibody, V domains shown)
VH: EVQLVESGGGLVQPGGSLRLSCAASGFPFSNHWMNWVRQAPGKGLEWVGEIRSKSMNSATHYAESVKGRFTISRDDSKNSLYLQMNSLKTEDTAVYYCARNYYGSTYDHWGQGTLVTVSS
VL: EIVLTQSPDFQSVTPKEKVTITCRASQFVGYSIHWYQQKPDQSPKLLIKYASESRSGVPSRFSGSGSGTDFTLTINSLEAEDAATYYCQQSHSWHFTFGQGTKLEIK
On to B1, for which the Kd in assay [1] is 0.774 nM. Besides, the koff in assay [2] was determined as 0.00023 s⁻¹.

One may read the Kd as the equilibrium constant for the complex coming apart. Broadly, the koff is the first-order rate constant of dissociation.
